Test results as given in US9814672B2, “Echogenic vehicle for clinical delivery of plasminogen activator and other fibrin-binding therapeutics to thrombi” (priority 2007, dated 2017).
Where two headings read alike, the source gives them in different places.

Experiments:
fibrin [1] = biological target: T1, fibrin (Homo sapiens, UniProt P02671+P02675+P02679); experiment: Two-stage fibrin pad ELISA, Scatchard and van't Hoff analysis; conditions: undiluted fresh-frozen rabbit serum, 37° C.; read-out: binding affinity (KD) in serum
T1 construct: were incubated on replicate fibrin pads, prepared in microplate wells; purchased Calbiochem (EMD Biosciences, Inc., La Jolla, Calif.)
T1 sequence (P02671 36-629 limits assumed): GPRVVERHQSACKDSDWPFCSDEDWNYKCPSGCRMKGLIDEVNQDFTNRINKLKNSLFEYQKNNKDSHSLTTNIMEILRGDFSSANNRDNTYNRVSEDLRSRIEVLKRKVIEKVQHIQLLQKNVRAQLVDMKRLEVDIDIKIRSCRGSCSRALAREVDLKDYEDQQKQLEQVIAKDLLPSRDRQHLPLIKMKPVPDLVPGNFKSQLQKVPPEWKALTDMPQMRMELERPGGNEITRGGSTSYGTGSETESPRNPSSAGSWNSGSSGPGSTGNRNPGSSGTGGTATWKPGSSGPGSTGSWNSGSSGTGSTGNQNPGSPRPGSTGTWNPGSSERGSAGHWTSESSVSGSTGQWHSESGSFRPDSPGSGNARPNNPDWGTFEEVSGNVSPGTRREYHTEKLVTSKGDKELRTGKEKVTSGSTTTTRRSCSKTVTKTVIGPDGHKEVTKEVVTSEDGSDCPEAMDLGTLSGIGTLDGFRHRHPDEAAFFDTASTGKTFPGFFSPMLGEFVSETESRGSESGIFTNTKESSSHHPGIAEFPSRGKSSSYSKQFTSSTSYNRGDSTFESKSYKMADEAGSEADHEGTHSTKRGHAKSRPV
T1 sequence (P02675 45-491 limits assumed): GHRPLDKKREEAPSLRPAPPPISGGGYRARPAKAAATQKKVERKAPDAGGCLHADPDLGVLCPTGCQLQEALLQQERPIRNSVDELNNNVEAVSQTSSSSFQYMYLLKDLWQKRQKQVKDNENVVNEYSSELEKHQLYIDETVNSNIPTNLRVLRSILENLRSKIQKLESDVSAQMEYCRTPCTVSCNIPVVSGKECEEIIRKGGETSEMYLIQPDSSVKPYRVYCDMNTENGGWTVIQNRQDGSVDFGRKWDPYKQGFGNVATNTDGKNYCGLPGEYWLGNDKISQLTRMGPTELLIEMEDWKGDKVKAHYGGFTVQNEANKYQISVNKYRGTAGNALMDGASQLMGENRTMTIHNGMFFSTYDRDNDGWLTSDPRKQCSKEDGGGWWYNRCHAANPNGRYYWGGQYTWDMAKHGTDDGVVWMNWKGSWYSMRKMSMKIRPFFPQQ
T1 sequence (P02679 27-437 isoform P02679-2 limits assumed): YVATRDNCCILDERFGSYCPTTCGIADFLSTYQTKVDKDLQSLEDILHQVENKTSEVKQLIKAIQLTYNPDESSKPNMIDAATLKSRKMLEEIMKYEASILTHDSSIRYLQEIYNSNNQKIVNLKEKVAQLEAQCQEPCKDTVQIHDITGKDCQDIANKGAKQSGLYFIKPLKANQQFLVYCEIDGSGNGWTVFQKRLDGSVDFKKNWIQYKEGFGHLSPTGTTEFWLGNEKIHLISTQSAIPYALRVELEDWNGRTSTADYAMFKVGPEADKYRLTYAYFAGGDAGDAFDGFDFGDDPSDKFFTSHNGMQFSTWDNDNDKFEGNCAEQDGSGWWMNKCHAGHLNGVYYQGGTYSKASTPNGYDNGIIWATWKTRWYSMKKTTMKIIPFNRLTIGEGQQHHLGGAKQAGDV

fibrin [2] = biological target: T1, fibrin; experiment: Solid-phase fibrin-tPA activity assay (SOFIA-tPA), Scatchard analysis; conditions: 37° C., read-out: KD of fibrin binding
Protocol: tPA-binding to fibrin was tested using a modification of the solid-phase fibrin-tPA activity assay (SOFIAtPA) developed by Angles-Cano (1986). This method combines a quantitative enzyme-linked immunosorbent assay (ELISA) technique, which enables calculation of ligand binding affinities, with a chromogenic measurement of enzyme specific activity. The latter provides quantitation of tPA bound to fibrin in the microtiter well, which permits the determination of binding affinities and immobilized fibrin concentration by classic Scatchard analysis.
Nunc Maxisorb microtiter plates were coated overnight at 4° C. with human fibrinogen (Calbiochem; 2.5.tg in 50 p.l 0.05 M sodium bicarbonate, pH 9.6, per well). Background wells were left uncoated. […]
About 200 μl of substrate-zymogen reagent (0.33 μM plasminogen+0.33 mM D-Val-Leu-Lys-p-nitroanilide in 0.02 M PBS, pH 7.3, with 0.1 M sodium chloride) was added to each sample well and to 12 additional wells (standard wells). […] The plates were then read at 405 nm in a Coulter microplate reader. Based on the response of the standards and the net OD of samples corrected for background absorbance in albumin-coated wells, concentrations of bound active tPA were calculated; Scatchard analyses were then performed and binding affinities determined.

fibrin [3] = biological target: T1, fibrin; conditions: SOFIA-tPA assay; read-out: KD of tPA-fibrin binding reported by Angles-Cano (1986); cited from earlier work

| Kd (fibrin [1]) [nM] | Kd (fibrin [2]) [nM] | Substance | Kd (fibrin [3]) [nM] |
| --- | --- | --- | --- |
| 9.52 | – | tPA(P): Human recombinant tPA (Activase®) irreversibly inhibited with D-phe-L-pro-L-arg-chloromethyl ketone (PPACK) | – |
| – | 2.61 | tPA: Recombinant tissue-plasminogen activator (Activase®, Genentech Inc.), used as the thrombolytic agent [reference compound] | 1.4 ± 2 |
